Patent US7625734B2, “Glutamine:fructose-6-phosphate amidotransferase (GFAT) comprising an internal purification marker and use thereof for the screening of compounds” (Centre National de la Recherche Scientifique (CNRS), priority 2003, dated 2009)
Read-outs that look alike come from different tables or passages of the source.

B1: GFAT1-His6: human GFAT1 (SEQ ID NO: 2) in which a hexa-histidine purification tag is inserted between amino acids 299 and 300 (protein, UniProt Q06210 2-699, looked up)
Glutamine--fructose-6-phosphat …: CGIFAYLNYHVPRTRREILETLIKGLQRLEYRGYDSAGVGFDGGNDKDWEANACKIQLIKKKGKVKALDEEVHKQQDMDLDIEFDVHLGIAHTRWATHGEPSPVNSHPQRSDKNNEFIVIHNGIITNYKDLKKFLESKGYDFESETDTETIAKLVKYMYDNRESQDTSFTTLVERVIQQLEGAFALVFKSVHFPGQAVGTRRGSPLLIGVRSEHKLSTDHIPILYRTARTQIGSKFTRWGSQGERGKDKKGSCNLSRVDSTTCLFPVEEKAVEYYFASDASAVIEHTNRVIFLEDDDVAAVVDGRLSIHRIKRTAGDHPGRAVQTLQMELQQIMKGNFSSFMQKEIFEQPESVVNTMRGRVNFDDYTVNLGGLKDHIKEIQRCRRLILIACGTSYHAGVATRQVLEELTELPVMVELASDFLDRNTPVFRDDVCFFLSQSGETADTLMGLRYCKERGALTVGITNTVGSSISRETDCGVHINAGPEIGVASTKAYTSQFVSLVMFALMMCDDRISMQERRKEIMLGLKRLPDLIKEVLSMDDEIQKLATELYHQKSVLIMGRGYHYATCLEGALKIKEITYMHSEGILAGELKHGPLALVDKLMPVIMIIMRDHTYAKCQNALQQVVARQGRPVVICDKEDTETIKNTKRTIKVPHSVDCLQGILSVIPLQLLAFHLAVLRGYDVDFPRNLAKSVTVE
modifications: internal His6 tag
B2: recombinant human GFAT1: recombinant human GFAT1 purified by Broschat et al., J. Biol. Chem. (2002) 277:14764 (protein, UniProt Q06210 2-699, looked up)
Glutamine--fructose-6-phosphat …: B1 Glutamine--fructose-6-phosphat …

Key:
GFAT activity [1] = target: T1, GFAT activity (Homo sapiens, UniProt Q06210, INS317HHHHHH); assay: APAD assay (spectrophotometric assay coupled with glutamate dehydrogenase); assay type: biochemical
T1 construct: made in house; host or cells: Sf9 insect cells (recombinant baculovirus)
Method: The kinetic parameters of GFAT1-His6 have been characterized vis-à-vis glutamine (Km^Gln=0.2 mM) and fructose-6P (F6P) (Km^F6P=0.006 mM) by a spectrophotometric assay coupled with glutamate dehydrogenase according to the APAD test. This is in accordance with the values cited in the prior art (Km^Gln=0.26 mM and Km^F6P=0.007 mM for Broschat et al., J. Biol. Chem. (2002) 277:14764).
This is an ultraviolet spectrophotometric assay of the GFAT activity. It is based on the continuous determination of the quantity of L-glutamate formed using GFAT and an analogue of NAD (nicotinamide adenine dinucleotide), APAD (3-acetylpyridine adenine dinucleotide), according to the following reaction (catalyzed by glutamate dehydrogenase (GDH)):
The measurement is carried out at 365 nm, at 37° C. Under these conditions an absorbance unit corresponds to 0.11 μmole of APADH formed.
The test comprises: • 100 μl 3 mM APAD (2 mg/ml) • 25 μl 2M KCl • 100 μl of 1 M KPO4 buffer, pH 7.2 • 100 μl of 100 mM Fructose-6P (30.41 mg/ml) • 100 μl of 60 mM purified L-Glutamine (8.77 mg/ml) • H2O qsf 1 ml (taking into account the volumes to be added hereafter) • 50 μl GDH • sample to be assayed: 0.5 μg

GFAT activity [2] = target: T1, GFAT activity; assay: Morgan-Elson assay of GFAT1-His6 enzyme activity; assay type: biochemical; details: 30 minutes at 37° C.; D-glucosamine standard curve
Method: In this case the enzyme activity is monitored by a colorimetric test the principle of which is the following: the D-glucosamine-6P released by the enzyme is N-acetylated by acetic anhydride in alkaline medium (Ghosh et al., Method. Enzymol. (1962) 5:414), then the solution is treated with Ehrlich's reagent (para-dimethyl-amino-benzaldehyde, PDAB) in concentrated acid medium; the pink compound formed absorbs at 585 nm.
The enzymatic reaction takes place over 30 minutes at 37° C. in the presence of: • 0.2 ml of 100 mM fructose-6P • 0.25 ml of 60 mM L-Glutamine • 0.25 ml of 150 mM KPO4 buffer, pH 7 • 0.1 ml of 25 mM EDTA (ethylene diamine tetra-acetate), pH 7 • up to 200 μl of sample (to be completed with H2O if necessary)
The reaction is stopped by immersion for 4 minutes in a water bath at 100° C. then centrifuged. […]
The activity of the GFAT was determined by comparison with a standard curve established using D-glucosamine as standard in a concentration range of 0 to 200 nmoles. The specific activity of the GFAT1-His6 obtained was thus measured at 1.7 U/mg. […]

GFAT activity [3] = details: value obtained by Broschat et al., J. Biol. Chem. (2002) 277:14764; cited from earlier work

T1 sequence (Q06210 with tags, fused parts or gaps isoform Q06210-2 INS299HHHHHH): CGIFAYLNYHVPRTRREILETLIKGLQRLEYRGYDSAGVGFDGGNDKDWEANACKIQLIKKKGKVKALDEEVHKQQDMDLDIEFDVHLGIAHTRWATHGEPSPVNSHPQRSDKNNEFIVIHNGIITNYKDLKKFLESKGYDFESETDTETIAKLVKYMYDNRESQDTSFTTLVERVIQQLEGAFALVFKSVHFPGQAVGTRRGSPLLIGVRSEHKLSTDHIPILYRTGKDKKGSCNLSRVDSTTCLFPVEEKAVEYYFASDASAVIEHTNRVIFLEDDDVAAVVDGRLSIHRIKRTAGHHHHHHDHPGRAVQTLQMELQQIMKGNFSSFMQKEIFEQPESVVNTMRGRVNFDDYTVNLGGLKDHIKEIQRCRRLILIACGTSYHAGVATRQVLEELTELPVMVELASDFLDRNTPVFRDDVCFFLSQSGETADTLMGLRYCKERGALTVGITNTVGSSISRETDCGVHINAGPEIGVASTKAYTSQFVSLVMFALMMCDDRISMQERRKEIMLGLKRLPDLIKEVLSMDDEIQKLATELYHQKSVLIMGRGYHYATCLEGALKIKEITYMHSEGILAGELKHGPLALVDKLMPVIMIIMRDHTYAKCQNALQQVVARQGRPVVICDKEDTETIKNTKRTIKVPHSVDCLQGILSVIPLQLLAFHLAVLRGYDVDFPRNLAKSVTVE

| Molecule | Km (GFAT activity [1]; vis-à-vis fructose-6P, read-out: Km F6P) [µM] | Km (GFAT activity [1]; vis-à-vis glutamine, read-out: Km Gln) [µM] | specific activity (GFAT activity [2]) [U/mg] | specific activity (GFAT activity [3]) [U/mg] |
| --- | --- | --- | --- | --- |
| B1 | 6 | 200 | 1.7 |  |
| B2 |  |  |  | 0.4 |
